Drawing on PMC6101532, this text covers stoichiometry N for 3 substances.

Assay [1] deals with MBP–RsbN α3 (maltose binding protein joined by a linker to RsbN α3) (Streptomyces venezuelae). The assay can be described thus: SEC.
In assay [2] the target is his-tagged RsbN(1–91) (Streptomyces venezuelae). Description: SEC. A general note: In gel filtration, larger molecules generally elute earlier.

By stoichiometry N is commonly meant the number of molecules, sites or subunits per partner or assembly. Turning to “BldN (σ^BldN), full length, wild type (natural protein)”, the stoichiometry N in assay [1] amounted to 1.

The substance “BldN domain 2 (σ2), non-tagged (domain or fragment)” had a stoichiometry N in assay [2] of 1.

Regarding “BldN domain 4 (σ4), non-tagged (domain or fragment)”, the stoichiometry N in assay [2] stood at 1.
